Results published in article PMC12730105, “The Interaction Between PGD2 and G6PD6 Is Involved in Aromatic Amino Acid Synthesis” (Biology, 2025).

Biological target: T1, MBP-G6PD6 (pMAL-c5x) (Arabidopsis thaliana, UniProt Q9FJI5 1-515)
T1 construct: glucose-6-phosphate dehydrogenase 6 (G6PD6), Arabidopsis thaliana, At5g40760, full-length ORF in pMAL-c5x; pMAL-c5x normally places MBP at the N-terminus; source: E. coli BL21 (DE3), purified (amylose resin)
T1 sequence (looked up): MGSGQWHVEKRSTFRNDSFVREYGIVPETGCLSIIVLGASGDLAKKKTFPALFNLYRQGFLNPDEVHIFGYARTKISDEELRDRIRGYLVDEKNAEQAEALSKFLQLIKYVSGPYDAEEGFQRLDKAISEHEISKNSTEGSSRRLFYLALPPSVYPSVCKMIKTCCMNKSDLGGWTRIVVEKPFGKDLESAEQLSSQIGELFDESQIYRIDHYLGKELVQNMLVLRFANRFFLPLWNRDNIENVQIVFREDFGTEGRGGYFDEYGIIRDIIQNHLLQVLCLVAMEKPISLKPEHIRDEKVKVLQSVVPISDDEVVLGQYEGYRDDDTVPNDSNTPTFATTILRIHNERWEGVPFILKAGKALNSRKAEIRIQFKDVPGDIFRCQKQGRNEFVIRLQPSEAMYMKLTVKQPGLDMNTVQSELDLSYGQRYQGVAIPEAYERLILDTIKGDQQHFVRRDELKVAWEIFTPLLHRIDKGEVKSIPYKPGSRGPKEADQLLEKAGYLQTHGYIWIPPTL
Experiment: pull-down; purified PGD2-HIS immobilised on Mag-Beads His-Tag resin (4 °C, 1 h), incubated with MBP-G6PD6 at 4 °C for 3 h, three washes, Western blot (the results speak of immobilised MBP-G6PD6)
Conditions: both partners purified

- binding result: binds
B1: PGD2-HIS (pET28a-PGD2) (enzyme, Arabidopsis thaliana, UniProt Q9FWA3 1-486, looked up)
chain: MAVQPTRIGLAGLAVMGQNLALNIAEKGFPISVYNRTTSKVDETVERAKKEGNLPLYGFHDPESFVKSIQKPRVIIMLVKAGSPVDQTIKTLSAYLEKGDCIVDGGNEWYENTERREKAVAENGFLYLGMGVSGGEEGARNGPSMMPGGSYEAYKNIEDIVLKVAAQVRDSGPCVTYIGKGGSGNFVKMVHNGIEYGDMQLIAEAYDVLKSVGKLSNEELHSVFSDWNKGELESFLVEITADIFGIKDDKGDGHLVDKVLDKTGMKGTGKWTVQQAAELSVPAPTIESSLDARFLSGLKDERVQAAKVFKAGGFGDILTDQKVDKKQLVDDVRKALYASKICSYAQGMNLIRAKSIEKGWGLKLGELARIWKGGCIIRAIFLDRIKQAYDRNAELANLLVDPEFAKEIIERQSAWRRVVCLAINSGISTPGMSASLAYFDSYRRERLPANLVQAQRDYFGAHTYERTDVEGSFHTEWFKIARQSKI
notes: Printed as PGD2-HIS in the methods and HIS-PGD2 in the results; also called HIS-PGD2; source: E. coli BL21 (DE3), purified (His60 Ni Superflow resin)
